± gives the standard deviation of the averaged measurements.
Test system: Saccharomyces cerevisiae
Test: protein stability index of tFT-peptide fusion (C-terminal peptide) (PSI (0-1 scale)); higher = more stable (slower turnover)
Settings: genetic background: wild type; temperature: 30 C
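Note: PSI is a weighted mean of sequencing reads over stability bins, variants kept only with over 10 reads, mCherry proximal and sfGFP distal, peptide attached via GGGS linker.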

MWAEWLCHGDRN and NAKGRKQTGKRK are within error of each other in protein stability index: 0.742 ± 0.068 for the first, 0.695 ± 0.035 for the second.

NAYRYFLNKQNR and NCFIPPARVFPS are within error of each other in protein stability index: 0.697 ± 0.012 for the first, 0.686 ± 0.028 for the second.

Compared with NCFVTILLGMWK, NCKLAVSPRPLR is higher in protein stability index: 0.513 ± 0.022 for the first, 0.692 ± 0.051 for the second.

NELSPSQDLPSS and NERTETVHQGTP are within error of each other in protein stability index: 0.671 ± 0.095 for the first, 0.691 ± 0.045 for the second.

First: NFCSSGLPLLII
Second: NFLPSAARTRTP
The protein stability index of the first is lower: 0.648 ± 0.022 for the first, 0.6758 ± 0.0023 for the second.

NFPVLLSISALL and NGGERQDGGKHR are within error of each other in protein stability index: 0.548 ± 0.072 for the first, 0.648 ± 0.034 for the second.

NGKGARSGETRT and NGTGGVEGPQTL are within error of each other in protein stability index: 0.647 ± 0.057 for the first, 0.659 ± 0.025 for the second.

NHTLPGTRSSVW and NIIADTHARRRF are within error of each other in protein stability index: 0.684 ± 0.09 for the first, 0.748 ± 0.11 for the second.

NIKEKRNKKKRR and NINITQNVKNIK are within error of each other in protein stability index: 0.677 ± 0.073 for the first, 0.716 ± 0.06 for the second.

First: NIPESSVSKLSK
Second: NIRYRQKEKKND
The protein stability index of the first is higher: 0.678 ± 0.026 for the first, 0.573 ± 0.031 for the second.

NKDGIKKKKYNK and NKFLRSVVRKHE are within error of each other in protein stability index: 0.668 ± 0.032 for the first, 0.671 ± 0.011 for the second.

NKFNTINQNREV and NKHDGRKWARYK are within error of each other in protein stability index: 0.678 ± 0.04 for the first, 0.6494 ± 0.00069 for the second.

NKKETRKQKTKK and NKKGMSIWANER are within error of each other in protein stability index: 0.673 ± 0.017 for the first, 0.68915 ± 0.0002 for the second.

First: NKKIYRTKIKKL
Second: NKKKKHTQYKRK
The protein stability index of the first is lower: 0.5917 ± 0.00069 for the first, 0.694 ± 0.0077 for the second.

NKKQTKKKRKNK and NKLYDESLALYP are within error of each other in protein stability index: 0.731 ± 0.037 for the first, 0.704 ± 0.044 for the second.

Compared with NKNGGDLCLGSS, NKTIVNNVKIRY is lower in protein stability index: 0.652 ± 0.049 for the first, 0.574 ± 0.0065 for the second.

NKVRDKTQLKIE and NLCRLGHTAGVL are within error of each other in protein stability index: 0.78 ± 0.094 for the first, 0.753 ± 0.086 for the second.

NLKLIRSEYNLN and NLRKGHSDERVV are within error of each other in protein stability index: 0.658 ± 0.042 for the first, 0.691 ± 0.071 for the second.

Compared with NLRSIYKLGRLT, NLRVANLAQRTE is higher in protein stability index: 0.549 ± 0.011 for the first, 0.703 ± 0.05 for the second.

NLSLPSPPLTTN and NMIKNNKWDINR are within error of each other in protein stability index: 0.731 ± 0.0082 for the first, 0.7 ± 0.074 for the second.

NMYQQIESEYSK and NNEKIEQRYSMK are within error of each other in protein stability index: 0.676 ± 0.045 for the first, 0.711 ± 0.019 for the second.

First: NNRIRNIISIRK
Second: NPFCPILPFALL
The protein stability index of the first is lower: 0.743 ± 0.04 for the first, 0.853 ± 0.069 for the second.

NPLDRQNCTCGE and NPLKAGFLVVTT are within error of each other in protein stability index: 0.656 ± 0.13 for the first, 0.6508 ± 0.0032 for the second.

Going from NPPPSPALLSRP to NPSSKVIALWKI, the protein stability index falls from 0.809 ± 0.06 to 0.556 ± 0.046.

NPTPPNLRSNLF and NPVFPPPPHSQL are within error of each other in protein stability index: 0.6877 ± 0.0055 for the first, 0.75 ± 0.18 for the second.

NPWTHVPGRQNH and NQPPFPLRRPPT are within error of each other in protein stability index: 0.731 ± 0.054 for the first, 0.699 ± 0.048 for the second.

Compared with NRCGGACGRQAG, NRCIRIQETVRI is lower in protein stability index: 0.711 ± 0.027 for the first, 0.619 ± 0.053 for the second.

NRFFFRHGCVVF and NRNSHSGKIKLK are the same in protein stability index: 0.691 ± 0.031 for the first, 0.691 ± 0.049 for the second.

NRVHLPELAFIT and NRVPKKPAHLQQ are within error of each other in protein stability index: 0.662 ± 0.014 for the first, 0.647 ± 0.013 for the second.

NSCVFCLCHDLA and NSGKPWTLGRQE are within error of each other in protein stability index: 0.6991 ± 0.006 for the first, 0.701 ± 0.043 for the second.

NSPTYEEKERHL and NSRDCILQARET are within error of each other in protein stability index: 0.82 ± 0.15 for the first, 0.713 ± 0.012 for the second.

NTMVPPTGSGNA and NTPNRNFTYTEN are within error of each other in protein stability index: 0.732 ± 0.13 for the first, 0.685 ± 0.038 for the second.

NTRIKGERNILH and NTRKNTTRKSQE are within error of each other in protein stability index: 0.702 ± 0.026 for the first, 0.637 ± 0.042 for the second.

Compared with NVYSVRGPWYGG, NYRPAHSFGVIS is higher in protein stability index: 0.6604 ± 0.0059 for the first, 0.725 ± 0.018 for the second.

NYSKPSYLVRAK and PAAPLPPTPPPP are within error of each other in protein stability index: 0.697 ± 0.053 for the first, 0.708 ± 0.0082 for the second.

First: PAAPPHGFPPPR
Second: PACSPLPPLPLS
The protein stability index of the first is lower: 0.6341 ± 0.0046 for the first, 0.7 ± 0.018 for the second.

PADPRSSPPVQQ and PAGFQTPPLVHD are within error of each other in protein stability index: 0.691 ± 0.02 for the first, 0.708 ± 0.091 for the second.

Compared with PAHPHPYHPSLH, PAHPPPPATPCP is higher in protein stability index: 0.6265 ± 0.0042 for the first, 0.6817 ± 0.0063 for the second.

PAHPSDIGAAAP and PAHSYPILASGH are the same in protein stability index: 0.675 ± 0.042 for the first, 0.675 ± 0.034 for the second.

Compared with PALKQEGRPEHS, PALLTICRTSLP is lower in protein stability index: 0.6942 ± 0.0053 for the first, 0.64 ± 0.00076 for the second.

PALPPPFPPFSP gave a protein stability index of 0.72 ± 0.084.

Source: the supplement of paper PMC10724198
